Patent publication US20160114035A1

Tests used:
Experiment in all cases: binding to purified HLA
Details in all cases: chains peptide; modification not given
DRB1*0101 = target: DRB1*0101
DRB1*0301 = target: DRB1*0301
DRB1*0401 = target: DRB1*0401
DRB1*0404 = target: DRB1*0404
DRB1*0405 = target: DRB1*0405
DRB1*0701 = target: DRB1*0701
DRB1*0802 = target: DRB1*0802
DRB1*0901 = target: DRB1*0901
DRB1*1101 = target: DRB1*1101
DRB1*1302 = target: DRB1*1302
DRB1*1501 = target: DRB1*1501
DRB4*0101 = target: DRB4*0101
DRB5*0101 = target: DRB5*0101

Binder: AKFVAAWTLKAAA [SEQ ID NO: 3]
- IC50 (DRB1*0101): 4 nM
- IC50 (DRB1*0301): 289 nM
- IC50 (DRB1*0401): 1.4 nM
- IC50 (DRB1*0404): 0.79 nM
- IC50 (DRB1*0405): 32 nM
- IC50 (DRB1*0701): 97 nM
- IC50 (DRB1*0802): 9.5 nM
- IC50 (DRB1*0901): 50 nM
- IC50 (DRB1*1101): 9.1 nM
- IC50 (DRB1*1302): 367 nM
- IC50 (DRB1*1501): 37 nM
- IC50 (DRB4*0101): 447 nM
- IC50 (DRB5*0101): 19 nM
